Assay results reported in US20090209453A1 (UNIVERSITY OF MEDICINE AND DENTISTRY OF NEW JERSEY, published 2009).
Blank lines part the entries; values can stand above or below the binder they belong to.

How the values were obtained:
rat LH receptor [1] = target: T1, rat LH receptor (rat, UniProt P16235 27-700); experiment: 125I-hCG competition on rat LH receptors
T1 construct: whole, on cells; CHO cells engineered to (over)express the rat LH receptor; also called rat lutropin receptor

rat LH receptor [2] = target: T1, rat LH receptor; experiment: competition with radioiodinated hCG for rat LH receptors

T1 sequence (P16235 27-700): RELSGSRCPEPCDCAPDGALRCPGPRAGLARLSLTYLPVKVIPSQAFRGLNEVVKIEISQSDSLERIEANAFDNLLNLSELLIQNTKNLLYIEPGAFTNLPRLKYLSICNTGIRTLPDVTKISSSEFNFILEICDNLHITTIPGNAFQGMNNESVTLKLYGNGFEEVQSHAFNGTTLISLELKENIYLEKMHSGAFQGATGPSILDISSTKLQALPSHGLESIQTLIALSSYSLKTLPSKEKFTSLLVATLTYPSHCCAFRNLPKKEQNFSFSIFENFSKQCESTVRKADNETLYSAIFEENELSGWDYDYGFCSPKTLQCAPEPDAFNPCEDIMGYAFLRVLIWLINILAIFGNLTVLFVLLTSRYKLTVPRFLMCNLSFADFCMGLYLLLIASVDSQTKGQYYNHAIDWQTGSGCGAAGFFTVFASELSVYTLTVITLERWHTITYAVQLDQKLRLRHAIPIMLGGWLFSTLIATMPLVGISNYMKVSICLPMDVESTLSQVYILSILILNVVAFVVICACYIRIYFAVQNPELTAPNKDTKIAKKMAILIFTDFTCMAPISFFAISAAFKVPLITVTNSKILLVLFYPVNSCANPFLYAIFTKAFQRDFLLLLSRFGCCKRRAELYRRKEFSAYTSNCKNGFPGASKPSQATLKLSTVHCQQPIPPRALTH

binding result (rat LH receptor [1]): binds
B1: pMB2472+pMB2673 heterodimer (crosslink α86-β108) (ligand)
alpha: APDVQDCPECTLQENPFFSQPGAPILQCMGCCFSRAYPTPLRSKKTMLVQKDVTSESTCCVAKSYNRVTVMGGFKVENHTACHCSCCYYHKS
beta: SKEPLRPRCRPINATLAVEKEGCPVCITVNTTICAGYCPTMTRVLQGVLPALPQVVCNYRDVRFESIRLPGCPRGVNPVVSYAVALSCQCALCRRSTTDCGGPKDHPC
modifications: Intersubunit disulfide between alpha Cys86 and beta Cys108 (the beta C-terminus). N-linked glycans remain, except at alpha position 52 (N52D). Beta Cys26 is free.
notes: The text says that pMB1244 or pMB2472 was the α-subunit construct; also called pMB2472 and pMB2673

binding result (rat LH receptor [1]): binds
B2: pMB2472+pMB2672 heterodimer (crosslink α86-β106) (ligand)
alpha: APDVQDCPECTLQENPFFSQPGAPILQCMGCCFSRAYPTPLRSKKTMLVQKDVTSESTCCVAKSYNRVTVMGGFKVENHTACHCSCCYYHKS
beta: SKEPLRPRCRPINATLAVEKEGCPVCITVNTTICAGYCPTMTRVLQGVLPALPQVVCNYRDVRFESIRLPGCPRGVNPVVSYAVALSCQCALCRRSTTDCGGPKDC
modifications: Intersubunit disulfide between alpha Cys86 and beta Cys106 (the beta C-terminus). N-linked glycans remain, except at alpha position 52 (N52D). Beta Cys26 is free.
notes: The text says that pMB1244 or pMB2472 was the α-subunit construct; also called pMB2472 and pMB2672

binding result (rat LH receptor [2]): binds
B3: pRM917+pMB2545 crosslinked heterodimer (ligand)
alpha: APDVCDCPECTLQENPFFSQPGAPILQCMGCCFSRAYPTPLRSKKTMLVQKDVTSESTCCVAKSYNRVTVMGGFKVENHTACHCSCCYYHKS
beta: SRPCCRPINATLAVEKEGCPVAITVNTTICAGYCPTMTRVLQGVLPALPQVVCNYRDVRFESIRLPGCPRGVNPVVSYAVALSCQCALCRRSTTDCGC
modifications: Potential intersubunit disulfides α5-β8 and α86-β102; N-linked glycans on both subunits (none at α52).
notes: Potential disulfides α5-β8 and α86-β102; also called pRM917 and pMB2545; copies: 1 + 1
